Test: soluble fraction after stress (log2 fold change); higher = more stays soluble; pooled small domains, quantitative proteomics
Conditions: stress: 75 degC
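Further: 20 min heating vs room temperature control held 20 min.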

Sequence: HMGTVKWFNATKGFGFIVPSDGGKDVFVHITAVQKAGLQGLNEGQKVSYEVAMERGKAAATNLR
- soluble fraction (log2): -0.782

— the domain aggregation screens of Martell et al. (2025)
